These results are taken from US20230313217A1, “CHLOROPLAST TARGETING PEPTIDES AND CONJUGATES AND COMPOSITIONS THEREOF” (The Regents of the University of California, priority 2021, published 2023).

Ends that are not written are not given here. Bounds are passed on as bounds.

Series [1] can be described thus: ζ potential of carbon nanostructures (Zetasizer). The format is physicochemical. As to the method: The resulting PEI-SWCNT suspension was characterized by measuring the absorbance spectra on a UV-vis absorbance spectrophotometer (UV-2600, Shimadzu). The quality of the SWCNT suspension was determined by analyzing absorbance peaks at 632 nm. This measurement was performed with triplicates. The concentration of the PEI-SWCNT was determined spectrophotometrically using the absorption value at 632 nm and utilizing the equation (absorbance at 632 nm/extinction coefficient of 0.036)=mg L^−1. The final concentration obtained after purification ranged from 18 to 30 mg/L. The nanoparticle ζ potential was measured using a Zetasizer (Nano ZS, Malvern Instruments) in samples suspended in 10 mM TES buffer pH 7.0, with 0.1 mM NaCl. The hydrodynamic size was measured using Zetasizer (Nano ZS, Malvern Instruments) in samples suspended in a 10 mM TES buffer at pH 7.
Characterization of Nanomaterials. All nanomaterials were characterized by absorbance UV-vis spectroscopy (UV-2600 Shimadzu), hydrodynamic size (Nano S), and ζ potential (Nano ZS). The nanomaterial ζ potential and hydrodynamic diameter were measured in a 10 mM TES buffer (pH 7.0). The ζ potential measurements were performed in 0.1 mM NaCl to improve conductivity and analyzed by the Hückel approximation model.^111 CD fluorescence emission was collected using a fluorescence spectrometer (Horiba PTI QM-400). The stepwise synthesis of TP-β-CDs was analyzed using FTIR (Thermo Nicolet 6700 FTIR).

Series [2] deals with chloroplasts in Arabidopsis leaves. As to the kind of experiment: Confocal colocalization of nanomaterials with chloroplasts after foliar spray. The format is in vivo, Arabidopsis thaliana. As to the method:
In Vivo Imaging of Chloroplast Targeted Nanomaterials. Confocal fluorescence microscopy imaging was used to determine the colocalization between chloroplasts in Arabidopsis leaves and both targeted and nontargeted β-CDs and CY3-ds(GT)15 (SEQ ID NO: 6) DNA coated SWCNT (FIG. 3A,B). Nanomaterials were foliar sprayed on whole plants in a formulation containing 0.1% Silwet (v/v) (Table 1). Control confocal images of leaves treated with only 10 mM TES buffer have no background autofluorescence in CD and CY3-ds(GT)15 (SEQ ID NO: 6) DNA emission channels (FIG. 12). The level of colocalization of fluorescent emission from nanocarriers with chloroplasts was determined by Manders' coefficient analysis (COLOC2, ImageJ) (FIG. 3C). The localization of targeted nanomaterials (TP-β-CD and TP-CY3-ds(GT)15-SWCNT) with chloroplasts in leaf mesophyll cells was higher compared to nontargeted materials lacking the targeting peptide (β-CD and CY3-ds(GT)15-SWCNT). […] Previously, we reported an in vivo increase in colocalization of chloroplasts with heavy-metal-based quantum dots functionalized with chloroplast targeting biorecognition peptides,^16 indicating the robustness of this approach for a variety of targeted nanomaterials. […]
Confocal Fluorescence Microscopy. […]

The next series relates to Arabidopsis leaf tissues. In words: Chlorophyll content index (SPAD) measurements. The format is in vivo, Arabidopsis thaliana. To be noted: 20 mg/L / 2 mg/L. As to the method: Chlorophyll content index (CCI) was measured in plants treated one and five days after treatment with nanomaterials and buffer control solution (10 mM TES, pH 7.0). Three-week-old Arabidopsis plants were exposed to β-CD, TP-β-CD, pATV1-SWCNT, or TP-pATV1-SWCNT. The CCI measurements were performed using chlorophyll meters (SPAD-502 plus, Konica Minolta, Tokyo, Japan; CCI readout resolution: 0.1) with each leaf being measured three times for CCI readouts. The onset of leaf senescence was determined by a marked decrease in chlorophyll levels (FIG. 14B). Experiments before 4-weeks of development are ideal to avoid plant senescence symptoms such as the increase in programmed cell death rates and decrease in chlorophyll content.^6-9

Another series relates to chloroplast DNA. Conditions: in vivo.

Description for chloroplast DNA: Chloroplasts were isolated from Arabidopsis leaves through a centrifugation gradient method in sucrose buffer.^1-3 Intact chloroplasts were isolated from leaves exposed to targeted and non-targeted CDs and pATV1-SWCNT, and buffer as control (10 mM TES pH 7.3) in 0.1% Silwet (v/v) for one day or five days. Following foliar spray with nanomaterials as explained above, 4 g of leaf tissue was collected from seven plants per treatment. Treated tissue was harvested, and ground in ice-cold 1× chilled sucrose buffer (pH 7.3, 28 mM Na2HPO4, 22 mM KH2PO4, 2.5 mM MgCl2, 400 mM sucrose, and 10 mM KCl). […]
DNA was extracted from plant leaf tissue and prepared using a Quick-DNA Plant/Seed DNA Miniprep kit (Zymo) in leaf samples treated with nanomaterials from one to five days. […] The DNA extraction was performed according to the manufacturer's instructions (zymoresearch.com) and concentrations were measured using a Nanodrop ND-1000 Spectrophotometer. […]
We determined the amount of oxidative DNA damage in plant leaves treated with nanomaterials for one day or five days using an enzyme-linked immunosorbent assay (ELISA) for 8-hydroxydeoxyguanosine (8-OHdG). The OxiSelect™ Oxidative DNA Damage ELISA Kit (Cat# STA-320, Cell Biolabs, inc.) quantifies the amount of 8-OHdG in isolated DNA samples from plant leaf tissue or isolated chloroplast suspensions. […]

In the case of “TP-β-CD: carbon dots with β-cyclodextrin molecular baskets covalently bonded to chloroplast targeting peptide MASSMLSSATMVGGC (SEQ ID NO:5) (also: covalently bonded to carbon dots with β-cyclodextrin, site not given here)”, the ζ potential in series [1] (10 mM TES buffer, pH 7.0) was −36.4±3.4 mV. Moreover, the “ζ potential, magnitude” value in series [1] (higher in magnitude than) was above 30 mV. Also, in series [2] (foliar spray, CD 20 mg/L, ds(GT)15-SWCNT 2 mg/L, Manders' coefficient, FIG. 3C), the “colocalization rates of nanomaterials with chloroplasts” value is on record as 70.0±9.46%. Besides, the “delivery, % of chloroplasts in leaves” value in series [2] (summary of Example 1) is reported as 70%. Moreover, the “chlorophyll content index (CCI)” value was 35.5±1.4 in the series with Arabidopsis leaf tissues (after 1 day of exposure) and 38.0±2.8 with Arabidopsis leaf tissues (after 5 days of exposure). Moreover, the “oxidative damage to isolated chloroplast DNA” value with chloroplast DNA is “not affected”.
